For assay [1], the target named is T1, Recombinant MBP-mutCALR Type 1 fusion protein (human).
T1 construct: custom made at Cepter; also called recombinant mutCALR protein
The assay can be described thus: SPR, IgG captured, 1:1 fit, Exp. 1. (In SPR one partner is held on a chip, and binding of the other changes the refractive index at the surface.)

For assay [2], the target named is T1, Recombinant MBP-mutCALR Type 1 fusion …. The assay can be described thus: SPR, IgG captured, 1:1 fit, Exp. 2. The method, boiled down:
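Antibodies captured via amine-coupled anti-human IgG (Fc) on a CM4 chip; recombinant MBP-mutCALR Type 1 fusion protein as analyte. Run at 25 °C in Tris-buffered saline pH 7.2, 0.005% P20, 1 mM CaCl₂. Multiple-cycle kinetics fitted to a 1:1 binding model.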

The target in assay [3] is T2, human Type 1 mutCALR on Ba/F3 cells expressing MPL and Type 1 mutCALR (human).
T2 chain: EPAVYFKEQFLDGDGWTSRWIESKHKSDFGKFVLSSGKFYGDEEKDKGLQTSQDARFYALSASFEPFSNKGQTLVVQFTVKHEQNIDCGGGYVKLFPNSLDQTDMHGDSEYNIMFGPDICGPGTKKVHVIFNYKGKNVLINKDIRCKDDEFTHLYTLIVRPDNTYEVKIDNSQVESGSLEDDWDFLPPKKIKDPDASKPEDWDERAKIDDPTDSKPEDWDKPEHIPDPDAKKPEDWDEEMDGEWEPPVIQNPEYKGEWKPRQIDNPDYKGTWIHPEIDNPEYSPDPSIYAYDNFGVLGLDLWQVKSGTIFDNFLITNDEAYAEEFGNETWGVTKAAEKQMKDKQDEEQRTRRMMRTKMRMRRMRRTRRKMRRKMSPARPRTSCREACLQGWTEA
In words: cell-based or functional assay.

Assay [4] has as its target T3, human mutCALR on BaF3 cells stably expressing human MPL and human mutCALR (MPL-mutCALR cells) (human).
T3 construct: also called mutant calreticulin
T3 chain: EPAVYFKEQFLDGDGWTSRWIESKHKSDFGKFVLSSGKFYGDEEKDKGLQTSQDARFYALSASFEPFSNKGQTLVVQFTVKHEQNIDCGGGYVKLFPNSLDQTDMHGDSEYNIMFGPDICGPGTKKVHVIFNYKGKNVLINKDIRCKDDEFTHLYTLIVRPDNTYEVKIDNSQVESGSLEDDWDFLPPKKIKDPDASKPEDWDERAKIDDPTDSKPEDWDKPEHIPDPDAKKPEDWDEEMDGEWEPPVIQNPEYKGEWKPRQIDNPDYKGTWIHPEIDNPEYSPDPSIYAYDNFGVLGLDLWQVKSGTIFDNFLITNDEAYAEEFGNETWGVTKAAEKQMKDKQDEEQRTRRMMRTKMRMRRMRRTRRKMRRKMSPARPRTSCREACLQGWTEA
The assay can be described thus: flow cytometry, BaF3 MPL-mutCALR cells. The protocol:
On the day of the assay, cells were washed and resuspended in assay buffer. Approximately 200,000 cells/well were added to 96-well plates and stained with the indicated concentration of antibodies for 30 minutes on ice. Cells were then washed and stained with goat anti-human secondary conjugated to R-phycoerythrin (R-PE) (Jackson Immuno Research Laboratories) for 30 minutes on ice. The cells were then washed and analyzed by flow cytometry.
(A flow cytometer gives signals particle by particle.)

B1: anti-mutCALR antibody clone 6 (antibody, human IgG1, lambda)
heavy: not shown
light: QSALTQPASVSGSPGQSITISCTGTSSDVGGYNYVSWYQQHPGKAPKLMIYEVSNRPSGVSNRFSGSNSGNTATLTINRVEAGDEADYYCQVWDSSNDLLIFGGGTKLTVLGQPKAAPSVTLFPPSSEELQANKATLVCLISDFYPGAVTVAWKADSSPVKAGVETTTPSKQSNNKYAASSYLSLTPEQWKSHRSYSCQVTHEGSTVEKTVAPTECS
notes: human IgG1
One may read the Kd as the constant that tells how readily two partners part at equilibrium. One may read the koff as the rate constant with which the complex falls apart. As a reminder, the kon is a measure of how fast the partners come together. Consider B1, for which, in assay [1], the Kd amounted to 2.57 nM, the koff is 0.00153 s⁻¹ and the kon was found to be 597000 M⁻¹ s⁻¹. Further, in assay [2], the Kd worked out at 0.538 nM, the koff amounted to 0.00123 s⁻¹ and the kon came out at 2.29e+06 M⁻¹ s⁻¹.

B2: anti-mutCALR antibody clone 1 (antibody, human IgG1, lambda, V domains shown)
VH: EVQLVQSGAEVKKPGASVKVSCKVSGYTLTELSMQWVRQAPGKGLEWMGGFDPDDGETMYAEKFQGRLTVTEDTSTDTVYMELRSLTSEDTALYFCATSPGYDFFDYWGQGTLVTVSS
VL: SYVLTQPPSVSVAPGKTARITCGGNYIGSKSVHWYQQKPGQAPVLVVYDDGDRPSGIPARFSGSNSGNTATLTISRVEAGDEADYYCQVWDSISDHVVFGGGTKLTVLG
notes: human IgG1
By EC50 is commonly meant the midpoint of the concentration-response curve. For B2, the “IC50, inhibition of pSTAT5” value in assay [3] stood at 0.47 µg/mL. Moreover, in assay [4], the EC50 came out at 0.01 µg/mL and the “MPL-mutCALR AUC” value came to 52800.

B3: anti-mutCALR antibody clone 4 (antibody, human IgG1, lambda, V domains shown)
VH: EVQLVQSGAEVKKPGASVKVSCKVSGYTLTELSMQWVRQAPGKGLEWMGGFDPDDGETMYAEKFQGRLTVTEDTSTDTVYMELRSLTSEDTALYFCATSPGYDFFDYWGQGTLVTVSS
VL: SYVLTQPPSVSVAPGQTARITCGGNNIGSKSVHWYQQKPGQAPVLVVYDDSDRPSGIPERFSGSNSGNTATLTINRVEAGDEADYYCQVWDSSNDLLIFGGGTKLTVLG
notes: human IgG1
In the case of B3, the “IC50, inhibition of pSTAT5” value in assay [3] was found to be 0.04 µg/mL. Further, the “MPL-mutCALR AUC” value in assay [4] was found to be 74000.

B4: anti-mutCALR antibody clone 7 (antibody, human IgG1, lambda, V domains shown)
VH: EVQLVQSGAEVKKPGASVKVSCKVSGYTLTELSMQWVRQAPGKGLEWMGGFDPDDGETMYAEKFQGRLTVTEDTSTDTVYMELRSLTSEDTALYFCATSPGYDFFDYWGQGTLVTVSS
VL: SYVLTQPPSVSVAPGQTASITCVGTNFGSKNVHWYQQRPGQAPVLVVYDDSDRPSGIPERFSGSNSGNTATLTINRVEAGDEADYYCQVWDSSNDLLIFGGGTKLTVLG
notes: human IgG1
Consider B4, for which the “IC50, inhibition of pSTAT5” value in assay [3] came to 0.049 µg/mL. In assay [4], the EC50 was found to be 0.19 µg/mL and the “MPL-mutCALR AUC” value was found to be 66800.

B5: anti-mutCALR antibody clone 3 (antibody, human IgG1, lambda, V domains shown)
VH: EVQLVQSGAEVKKPGASVKVSCKVSGYTLTELSMQWVRQAPGKGLEWMGGFDPDDGETMYAERFQGRLTVTEDTSTDTVYMELRSLTSEDTALYFCATSPGYDFFDYWGQGTLVTVSS
VL: SYVLTQPPSVSVAPGQTARITCGGNNIGSKSVHWYQQKPGQAPVLVVYDDSDRPSGIPERFSGSNSGNTATLTINRVEAGDEADYYCQVWDSSNDLLIFGGGTKLTVLG
notes: human IgG1
As to B5, in assay [3], the “IC50, inhibition of pSTAT5” value was found to be 0.021 µg/mL. In addition, the “MPL-mutCALR AUC” value in assay [4] was 102000.

B6: anti-mutCALR antibody clone 2 (antibody, human IgG1, lambda, V domains shown)
VH: EVQLVQSGAEVKKPGASVKVSCKVSGYTLTELSMQWVRQAPGKGLEWMGGFDPDDGETMYAEKFQGRLTVTEDTSTDTVYMELRSLTSEDTALYFCATSPGYDFFDYWGQGTLVTVSS
VL: SYELTQPPSVSVAPGKTARITCGGDNIGSKSVHWYQQKPGQAPVLVVYDDSDRPSGIPERFSGSNSGNTATLTISRVEAGDEADYYCQVWDSSIDHLIFGGGTKVTVLG
notes: human IgG1
As to B6, the “IC50, inhibition of pSTAT5” value in assay [3] was 0.12 µg/mL. In assay [4], the response was half-maximal at 0.01 µg/mL (EC50) and the “MPL-mutCALR AUC” value was determined as 60400.

B7: anti-mutCALR antibody clone 5 (antibody, human IgG1, lambda, V domains shown)
VH: EVQLVQSGAEVKKPGASVKVSCKVSGYTLTELSMQWVRQAPGKGLEWMGGFDPDDGETMYAEKFQGRLTVTEDTSTDTVYMELRSLTSEDTALYFCATSPGYDFFDYWGQGTLVTVSS
VL: SYVLTQPPSVSVAPGQTASITCVGTNFGSKNVHWYQQRPGQAPVLVVYDDSDRPSGIPERFSGSNSGNTATLTISRVEAGDEADYYCQVWDSSSDHLIFGGGTKLTVLG
notes: human IgG1
Turning to B7, the “IC50, inhibition of pSTAT5” value in assay [3] is 0.03 µg/mL. In assay [4], the response was half-maximal at 0.09 µg/mL (EC50) and the “MPL-mutCALR AUC” value was determined as 57100.

B8: anti-mutCALR antibody clone 8 (antibody, human IgG1, lambda, V domains shown)
VH: QVQLVQSGAEVKKPGSSVKVSCKVSGYTLTELSMQWVRQAPGKGLEWMGGFDPDDGETMYAEKFQGRLTVTEDTSTDTVYMELRSLTSEDTALYFCATSPGYDFFDYWGQGTLVTVSS
VL: SYELTQPPSVSVAPGQTARITCGGNNIGSKSVHWYQQKPGQAPVLVVYDDSDRPSGIPERFSGSNSGRTATLTISRVEAGDEADYHCQVWDSSSDHLVFGGGTKLTVLG
notes: human IgG1
For B8, the “IC50, inhibition of pSTAT5” value in assay [3] was 0.043 µg/mL. In assay [4], the 50% effective concentration (EC50) was 4.12 µg/mL and the “MPL-mutCALR AUC” value amounted to 67400.

B9: anti-mutCALR antibody clone 36 (antibody, human IgG1, lambda, V domains shown)
VH: QVQLVQSGAEVKKPGATVKISCKVSGYSFTDYFIHWVQQAPGKGLAWVGLVDPEDGETIYAEKFQGRVTITADTSTDTAYMELSSLRSEDTAVYYCATPGGILTDPDAFDIWGQGTMVTVSS
VL: QSALTQPRSVSGSPGQSVTISCAGTGSDVGGYNYVSWYQHHPGKAPKLMIYDVNKRPSGVPDRFSGSKSGNTASLTISGLQAEDEADYYCSSYTSSSTFYVFGTGTKVTVLG
notes: human IgG1
As for B9, in assay [1], the equilibrium dissociation constant (Kd) worked out at 2.95 nM, the koff stood at 0.00205 s⁻¹ and the kon worked out at 695000 M⁻¹ s⁻¹. Besides, in assay [2], the Kd was determined as 1.22 nM, the koff is 0.00166 s⁻¹ and the kon was 1.36e+06 M⁻¹ s⁻¹.

B10: anti-mutCALR antibody clone 53 (antibody, human IgG1, lambda, V domains shown)
VH: QVQLVQSGAEVKKPGASVKVSCKVSGYTLTELSMHWVRQAPGKGLEWMGGFDPEDGETIYAQKFQGRVTMTEDTSTDTAYMELSSLRSEDTAVYYCATDIQGLAEFDYWGQGTLVTVSS
VL: QSALTQPRSVSGSPGQSVTISCTGTNTDVGAYIDVSWYQQHPGKAPKLIIYDVSKWPSGVPDRFSGSKSGNTASLTISGLQAEDEADYYCCSYAGNHSFSFGGGTKVTVLG
notes: human IgG1
With B10, in assay [1], the Kd stood at 10.2 nM, the koff came to 0.00235 s⁻¹ and the kon was found to be 229000 M⁻¹ s⁻¹. For the same molecule, in assay [2], the Kd came out at 17 nM, the koff was 0.108 s⁻¹ and the kon was determined as 6.36e+06 M⁻¹ s⁻¹.

B11: anti-mutCALR antibody clone 44 (antibody, human IgG1, lambda, V domains shown)
VH: EVQLVQSGAEVKKPGSSVKVSCKASGGTFSSYAISWVRQAPGQGLEWMGGIIPIFGTANYAQKFQGRVTITADESTSTAYMELSSLRSEDTAVYYCASSPLRGSGWYWHYYYGMDVWGQGTTVTVSS
VL: SYVLTQPPSVSAAPGKTARISCGGNNIRSKSVHWYQQKAGQAPVLVIYQDSKRPSGIPERFSGSNSGNTATLTISGTQAMDEADYYCQAWDSNTVVFGGGTKLTVLG
Turning to B11, in assay [3], the “IC50, inhibition of pSTAT5” value was found to be 7 µg/mL.

B12: anti-mutCALR antibody clone 47 (antibody, human IgG1, lambda, V domains shown)
VH: EVQLVQSGAEVKKPGSSVKVSCKASGGTFSSYAISWVRQAPGQGLEWMGGIIPIFGTANYAQKFQGRVTITADESTSTAYMELSSLRSEDTAVYYCASSPLRGSGWYWHYYYGMDVWGQGTTVTVSS
VL: SYELTQPPSVSVAPGKTARITCGGNKIGTKSVHWYQQKPGQAPVLVIYRDSNRPSGIPERFSGSNSGNTATLTISRAQAGDEADYYCQVWDSSTVVFGGGTKLTVLG
In the case of B12, in assay [3], the “IC50, inhibition of pSTAT5” value worked out at 10 µg/mL.

B13: anti-mutCALR antibody clone 46 (antibody, human IgG1, lambda, V domains shown)
VH: QVQLVQSGAEVKKPGSSVKVSCKASGGTFSSYAISWVRQAPGQGLEWMGGIIPIFGTANYAQKFQGRVTITADESTSTAYMELSSLRSEDTAVYYCASSPLRGSGWYWHYYYGMDVWGQGTTVTVSS
VL: SYELTQPPSVSVAPGKTARITCGGNNIRSKSVHWYQQKPGQAPVLVVYQDSKRPSGIPERFSGSNSGNTATLTISGTQAMDEADYYCQVWDSSTAVFGGGTKLTVLG
As to B13, the “IC50, inhibition of pSTAT5” value in assay [3] was 3.9 µg/mL.
